# Laboratory results: publication PMC5618010 (Viruses, 2017)
# Numbering of substitutions follows the chain as printed. In names and notes the source's numbering stands. No end group written: not given here.
# B1: R28A-HD5: HD5 mutant R28A, chemically synthesized; cationicity (peptide, UniProt Q01523 20-94, looked up, variant R28A)
# Defensin alpha 5: ESLQERADEATTQKQSGEDNQDLAISFAGNGLSALRTSGSQARATCYCRTGRCATRESLSGVCEISGRLYALCCR
# modifications: Defensin-5
# B2: S15A-HD5: HD5 mutant S15A, chemically synthesized (peptide, UniProt Q01523 20-94, looked up, variant S15A)
# Defensin alpha 5: B1 Defensin alpha 5 with S58A, A71R
# modifications: Defensin-5
# B3: L16A-HD5: HD5 mutant L16A, chemically synthesized; hydrophobicity (peptide, UniProt Q01523 20-94, looked up, variant L16A)
# Defensin alpha 5: B1 Defensin alpha 5 with L59A, A71R
# modifications: Defensin-5
# B4: Y27A-HD5: HD5 mutant Y27A, chemically synthesized; hydrophobicity (peptide, UniProt Q01523 20-94, looked up, variant Y27A)
# Defensin alpha 5: B1 Defensin alpha 5 with Y70A, A71R
# modifications: Defensin-5
# B5: human α-defensin 5 (peptide, UniProt Q01523 20-94, looked up)
# Defensin alpha 5: B1 Defensin alpha 5 with A71R
# modifications: Defensin-5
# B6: Y4A-HD5: HD5 mutant Y4A, chemically synthesized; hydrophobicity (peptide, UniProt Q01523 20-94, looked up, variant Y4A)
# Defensin alpha 5: B1 Defensin alpha 5 with Y47A, A71R
# modifications: Defensin-5
# Experiments:
# Format in all cases: cell-based
# HIV-1JR-FL [1] = test system: HIV-1JR-FL
# HIV-1JR-FL [2] = test system: HIV-1JR-FL; remark: listed apart in the source
# HIV-1JR-FL [3] = test system: HIV-1JR-FL; remark: listed apart in the source
Molecule,Infectivity 10 μg/mL: relative percent of HIV infectivity compared to WT HD6 (HIV-1JR-FL [1]) [%],Infectivity 30 μg/mL: relative percent of HIV infectivity compared to WT HD6 (HIV-1JR-FL [1]) [%],Late RT production compared to WT HD6 (HIV-1JR-FL [2]),Attachment 10 μg/mL: relative percent of HIV attachment compared to WT HD6 (HIV-1JR-FL [3]) [%],Attachment 30 μg/mL: relative percent of HIV attachment compared to WT HD6 (HIV-1JR-FL [3]) [%],Infectivity 10 μg/mL: relative percent of HIV infectivity compared to WT HD5 (HIV-1JR-FL [1]) [%],Infectivity 30μg/mL: relative percent of HIV infectivity compared to WT HD5 (HIV-1JR-FL [1]) [%],Loss of HIV attachment-enhancing and infection-enhancing activities (HIV-1JR-FL [1]),Attachment 10 μg/mL: relative percent of HIV attachment compared to WT HD5 (HIV-1JR-FL [3]) [%],Attachment 30 μg/mL: relative percent of HIV attachment compared to WT HD5 (HIV-1JR-FL [3]) [%],Reduction of ability to promote HIV attachment compared to WT HD5 (HIV-1JR-FL [3]) [%]
"Ac-HD6: HD6 acetylated at the N-terminus (Ac-AFTCHCRRSCYSTEYSYGTCTVMGINHRFCCL; ends and bridges not checked; UniProt Q01524 69-100, looked up)",58 ± 24,175 ± 43,comparable,57 ± 14,87 ± 19,–,–,–,–,–,–
B1,–,–,–,–,–,66 ± 5,52 ± 3,about 50%,54 ± 17,59 ± 19,41
B2,–,–,–,–,–,166 ± 30,81 ± 11,–,118± 9,95 ± 16,–
B3,–,–,–,–,–,10 ± 3,30 ± 3,–,17 ± 5,27 ± 7,–
B4,–,–,–,–,–,28 ± 18,29 ± 9,–,19 ± 11,18 ± 9,–
B5,–,–,–,–,–,100 ± 0,100 ± 0,–,100 ± 0,100 ± 0,–
B6,–,–,–,–,–,136 ± 42,75 ± 14,–,134 ± 26,106 ± 3,–
